# Starred links: 1 amine or outer side, 2 acyl side, 3 side chain; linkers in the order of their positions; H or OH if unused. Non-standard residues stand in square brackets, D forms with d. *: point of attachment. Pipz(1-CH2CO,4-CH2CH2NH) = O=C(CN1CCN(CCN[*:1])CC1)[*:2]; C18 diacid = O=C(O)CCCCCCCCCCCCCCCCC(=O)*; γGlu = O=C(O)[C@H](CCC(=O)[*:2])N[*:1]; 2Pal = N[C@@H](Cc1ccccn1)C(=O)O; 4Pal = N[C@@H](Cc1ccncc1)C(=O)O; NMeL = CN[C@@H](CC(C)C)C(=O)O; NMeA = CN[C@@H](C)C(=O)O; Nle = CCCC[C@H](N)C(=O)O; Sar = CNCC(=O)O
# T1: human neuromedin U receptor 1 (human, UniProt Q9HB89 24-426)
# T1 sequence (looked up): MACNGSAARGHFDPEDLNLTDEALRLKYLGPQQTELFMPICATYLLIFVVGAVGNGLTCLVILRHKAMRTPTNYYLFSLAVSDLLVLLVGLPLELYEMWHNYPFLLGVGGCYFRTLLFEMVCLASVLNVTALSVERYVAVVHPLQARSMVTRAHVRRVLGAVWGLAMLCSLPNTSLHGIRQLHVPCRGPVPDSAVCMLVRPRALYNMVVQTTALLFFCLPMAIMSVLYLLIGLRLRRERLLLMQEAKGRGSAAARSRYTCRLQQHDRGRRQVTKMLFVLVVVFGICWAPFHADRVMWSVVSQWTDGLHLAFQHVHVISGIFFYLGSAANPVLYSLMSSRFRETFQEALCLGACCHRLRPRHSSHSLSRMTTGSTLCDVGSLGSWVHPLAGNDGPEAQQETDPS
# Target: T1, human neuromedin U receptor 1
# Assay: cell-based or functional assay
row,EC50 (hNMUR1) buffer,Binder
1,> 1000 nM,EEXXXXXXXXXXYFLXXARG (HELM PEPTIDE1{[O=C(O)CCCCCCCCCCCCCCCCC(=O)[*:2]].[gGlu].[gGlu].[Sar].[Sar].[Sar].[Sar].[Sar].[Sar].[Sar].[Sar].[Sar].[O=C(CN1CCN(CCN[*:1])CC1)[*:2]].Y.F.[meL].[Nle].[Orn].[meA].R.G.[am]}$$$$V2.0; SMILES CCCC[C@H](NC(=O)[C@H](CC(C)C)N(C)C(=O)[C@H](Cc1ccccc1)NC(=O)[C@H](Cc1ccc(O)cc1)NC(=O)CN1CCN(CCNC(=O)CN(C)C(=O)CN(C)C(=O)CN(C)C(=O)CN(C)C(=O)CN(C)C(=O)CN(C)C(=O)CN(C)C(=O)CN(C)C(=O)CN(C)C(=O)CC[C@H](NC(=O)CC[C@H](NC(=O)CCCCCCCCCCCCCCCCC(=O)O)C(=O)O)C(=O)O)CC1)C(=O)N[C@@H](CCCN)C(=O)N(C)[C@@H](C)C(=O)N[C@@H](CCCNC(=N)N)C(=O)NCC(N)=O) [C18DA-gGlu2-Sar9-AEPipAc-Tyr-Phe-NMeLeu-Nle-Orn-NMeAla-Arg-Gly-NH2]
2,870 nM,EEEEXXXXXXXXXXXXXYFLXXPRG (HELM PEPTIDE1{[O=C(O)CCCCCCCCCCCCCCCCC(=O)[*:2]].[gGlu].[gGlu].[gGlu].[gGlu].[Sar].[Sar].[Sar].[Sar].[Sar].[Sar].[Sar].[Sar].[Sar].[Sar].[Sar].[Sar].[O=C(CN1CCN(CCN[*:1])CC1)[*:2]].Y.F.[meL].[Nle].[Orn].P.R.G.[am]}$$$$V2.0; SMILES CCCC[C@H](NC(=O)[C@H](CC(C)C)N(C)C(=O)[C@H](Cc1ccccc1)NC(=O)[C@H](Cc1ccc(O)cc1)NC(=O)CN1CCN(CCNC(=O)CN(C)C(=O)CN(C)C(=O)CN(C)C(=O)CN(C)C(=O)CN(C)C(=O)CN(C)C(=O)CN(C)C(=O)CN(C)C(=O)CN(C)C(=O)CN(C)C(=O)CN(C)C(=O)CN(C)C(=O)CC[C@H](NC(=O)CC[C@H](NC(=O)CC[C@H](NC(=O)CC[C@H](NC(=O)CCCCCCCCCCCCCCCCC(=O)O)C(=O)O)C(=O)O)C(=O)O)C(=O)O)CC1)C(=O)N[C@@H](CCCN)C(=O)N1CCC[C@H]1C(=O)N[C@@H](CCCNC(=N)N)C(=O)NCC(N)=O) [C18DA-gGlu4-Sar12-AEPipAc-Tyr-Phe-NMeLeu-Nle-Orn-Pro-Arg-Gly-NH2]
3,> 1000 nM,"{C18 diacid}-[γGlu][γGlu][γGlu][Sar][Sar][Sar][Sar][Sar][Sar][Sar][Sar][Sar][Sar][Sar][Sar][Sar][Sar][Sar][Pipz(1-CH2CO,4-CH2CH2NH)]YF[NMeL][Nle][4Pal]PRG-NH2 (SMILES CCCC[C@H](NC(=O)[C@H](CC(C)C)N(C)C(=O)[C@H](Cc1ccccc1)NC(=O)[C@H](Cc1ccc(O)cc1)NC(=O)CN1CCN(CCNC(=O)CN(C)C(=O)CN(C)C(=O)CN(C)C(=O)CN(C)C(=O)CN(C)C(=O)CN(C)C(=O)CN(C)C(=O)CN(C)C(=O)CN(C)C(=O)CN(C)C(=O)CN(C)C(=O)CN(C)C(=O)CN(C)C(=O)CN(C)C(=O)CN(C)C(=O)CC[C@H](NC(=O)CC[C@H](NC(=O)CC[C@H](NC(=O)CCCCCCCCCCCCCCCCC(=O)O)C(=O)O)C(=O)O)C(=O)O)CC1)C(=O)N[C@@H](Cc1ccncc1)C(=O)N1CCC[C@H]1C(=O)N[C@@H](CCCNC(=N)N)C(=O)NCC(N)=O) [C18DA-gGlu3-Sar15-AEPipAc-Tyr-Phe-NMeLeu-Nle-4Pal-Pro-Arg-Gly-NH2]"

# The next lines start with the binder.
row,Binder,EC50 (hNMUR1) buffer
1,EEEXXXXXXXXXXXXXXXXYFLXKPRG (HELM PEPTIDE1{[O=C(O)CCCCCCCCCCCCCCCCC(=O)[*:2]].[gGlu].[gGlu].[gGlu].[Sar].[Sar].[Sar].[Sar].[Sar].[Sar].[Sar].[Sar].[Sar].[Sar].[Sar].[Sar].[Sar].[Sar].[Sar].[O=C(CN1CCN(CCN[*:1])CC1)[*:2]].Y.F.[meL].[Nle].K.P.R.G.[am]}$$$$V2.0; SMILES CCCC[C@H](NC(=O)[C@H](CC(C)C)N(C)C(=O)[C@H](Cc1ccccc1)NC(=O)[C@H](Cc1ccc(O)cc1)NC(=O)CN1CCN(CCNC(=O)CN(C)C(=O)CN(C)C(=O)CN(C)C(=O)CN(C)C(=O)CN(C)C(=O)CN(C)C(=O)CN(C)C(=O)CN(C)C(=O)CN(C)C(=O)CN(C)C(=O)CN(C)C(=O)CN(C)C(=O)CN(C)C(=O)CN(C)C(=O)CN(C)C(=O)CC[C@H](NC(=O)CC[C@H](NC(=O)CC[C@H](NC(=O)CCCCCCCCCCCCCCCCC(=O)O)C(=O)O)C(=O)O)C(=O)O)CC1)C(=O)N[C@@H](CCCCN)C(=O)N1CCC[C@H]1C(=O)N[C@@H](CCCNC(=N)N)C(=O)NCC(N)=O) [C18DA-gGlu3-Sar15-AEPipAc-Tyr-Phe-NMeLeu-Nle-Lys-Pro-Arg-Gly-NH2],> 1000 nM
2,"{C18 diacid}-[γGlu][γGlu][γGlu][Sar][Sar][Sar][Sar][Sar][Sar][Sar][Sar][Sar][Sar][Sar][Sar][Sar][Sar][Sar][Pipz(1-CH2CO,4-CH2CH2NH)]YF[NMeL][Nle][2Pal][NMeA]RG-NH2 (SMILES CCCC[C@H](NC(=O)[C@H](CC(C)C)N(C)C(=O)[C@H](Cc1ccccc1)NC(=O)[C@H](Cc1ccc(O)cc1)NC(=O)CN1CCN(CCNC(=O)CN(C)C(=O)CN(C)C(=O)CN(C)C(=O)CN(C)C(=O)CN(C)C(=O)CN(C)C(=O)CN(C)C(=O)CN(C)C(=O)CN(C)C(=O)CN(C)C(=O)CN(C)C(=O)CN(C)C(=O)CN(C)C(=O)CN(C)C(=O)CN(C)C(=O)CC[C@H](NC(=O)CC[C@H](NC(=O)CC[C@H](NC(=O)CCCCCCCCCCCCCCCCC(=O)O)C(=O)O)C(=O)O)C(=O)O)CC1)C(=O)N[C@@H](Cc1ccccn1)C(=O)N(C)[C@@H](C)C(=O)N[C@@H](CCCNC(=N)N)C(=O)NCC(N)=O) [C18DA-gGlu3-Sar15-AEPipAc-Tyr-Phe-NMeLeu-Nle-2Pal-NMeAla-Arg-Gly-NH2]",> 1000 nM
3,EEEEXXXXXXXXXXXXXYFLXXPRG (HELM PEPTIDE1{[O=C(O)CCCCCCCCCCCCCCCCC(=O)[*:2]].[gGlu].[gGlu].[gGlu].[gGlu].[Sar].[Sar].[Sar].[Sar].[Sar].[Sar].[Sar].[Sar].[Sar].[Sar].[Sar].[Sar].[O=C(CN1CCN(CCN[*:1])CC1)[*:2]].Y.F.[meL].[Nle].[Dab].P.R.G.[am]}$$$$V2.0; SMILES CCCC[C@H](NC(=O)[C@H](CC(C)C)N(C)C(=O)[C@H](Cc1ccccc1)NC(=O)[C@H](Cc1ccc(O)cc1)NC(=O)CN1CCN(CCNC(=O)CN(C)C(=O)CN(C)C(=O)CN(C)C(=O)CN(C)C(=O)CN(C)C(=O)CN(C)C(=O)CN(C)C(=O)CN(C)C(=O)CN(C)C(=O)CN(C)C(=O)CN(C)C(=O)CN(C)C(=O)CC[C@H](NC(=O)CC[C@H](NC(=O)CC[C@H](NC(=O)CC[C@H](NC(=O)CCCCCCCCCCCCCCCCC(=O)O)C(=O)O)C(=O)O)C(=O)O)C(=O)O)CC1)C(=O)N[C@@H](CCN)C(=O)N1CCC[C@H]1C(=O)N[C@@H](CCCNC(=N)N)C(=O)NCC(N)=O) [C18DA-gGlu4-Sar12-AEPipAc-Tyr-Phe-NMeLeu-Nle-Dbu-Pro-Arg-Gly-NH2],1300 nM
4,EEEXXXXXXXXXXXXXXXXYFLXKPRG (HELM PEPTIDE1{[O=C(O)CCCCCCCCCCCCCCCCCCC(=O)[*:2]].[gGlu].[gGlu].[gGlu].[Sar].[Sar].[Sar].[Sar].[Sar].[Sar].[Sar].[Sar].[Sar].[Sar].[Sar].[Sar].[Sar].[Sar].[Sar].[O=C(CN1CCN(CCN[*:1])CC1)[*:2]].Y.F.[meL].[Nle].K.P.R.G.[am]}$$$$V2.0; SMILES CCCC[C@H](NC(=O)[C@H](CC(C)C)N(C)C(=O)[C@H](Cc1ccccc1)NC(=O)[C@H](Cc1ccc(O)cc1)NC(=O)CN1CCN(CCNC(=O)CN(C)C(=O)CN(C)C(=O)CN(C)C(=O)CN(C)C(=O)CN(C)C(=O)CN(C)C(=O)CN(C)C(=O)CN(C)C(=O)CN(C)C(=O)CN(C)C(=O)CN(C)C(=O)CN(C)C(=O)CN(C)C(=O)CN(C)C(=O)CN(C)C(=O)CC[C@H](NC(=O)CC[C@H](NC(=O)CC[C@H](NC(=O)CCCCCCCCCCCCCCCCCCC(=O)O)C(=O)O)C(=O)O)C(=O)O)CC1)C(=O)N[C@@H](CCCCN)C(=O)N1CCC[C@H]1C(=O)N[C@@H](CCCNC(=N)N)C(=O)NCC(N)=O) [C20DA-gGlu3-Sar15-AEPipAc-Tyr-Phe-NMeLeu-Nle-Lys-Pro-Arg-Gly-NH2],1300 nM
5,EEEXXXXXXXXXXXXXXXXYFLXKARG (HELM PEPTIDE1{[O=C(O)CCCCCCCCCCCCCCCCC(=O)[*:2]].[gGlu].[gGlu].[gGlu].[Sar].[Sar].[Sar].[Sar].[Sar].[Sar].[Sar].[Sar].[Sar].[Sar].[Sar].[Sar].[Sar].[Sar].[Sar].[O=C(CN1CCN(CCN[*:1])CC1)[*:2]].Y.F.[meL].[Nle].K.[meA].R.G.[am]}$$$$V2.0; SMILES CCCC[C@H](NC(=O)[C@H](CC(C)C)N(C)C(=O)[C@H](Cc1ccccc1)NC(=O)[C@H](Cc1ccc(O)cc1)NC(=O)CN1CCN(CCNC(=O)CN(C)C(=O)CN(C)C(=O)CN(C)C(=O)CN(C)C(=O)CN(C)C(=O)CN(C)C(=O)CN(C)C(=O)CN(C)C(=O)CN(C)C(=O)CN(C)C(=O)CN(C)C(=O)CN(C)C(=O)CN(C)C(=O)CN(C)C(=O)CN(C)C(=O)CC[C@H](NC(=O)CC[C@H](NC(=O)CC[C@H](NC(=O)CCCCCCCCCCCCCCCCC(=O)O)C(=O)O)C(=O)O)C(=O)O)CC1)C(=O)N[C@@H](CCCCN)C(=O)N(C)[C@@H](C)C(=O)N[C@@H](CCCNC(=N)N)C(=O)NCC(N)=O) [C18DA-gGlu3-Sar15-AEPipAc-Tyr-Phe-NMeLeu-Nle-Lys-NMeAla-Arg-Gly-NH2],> 1000 nM
